Laboratory results reported in article doi:10.1101/2023.07.10.548257 (bioRxiv, 2024).
Changes are numbered by the printed parent chain. No end group written: not given here.

Assays:
full-length SHP2^T42A = target: T1, full-length SHP2^T42A (Homo sapiens, UniProt Q06124, T42A); assay: SHP2 activation assay using phosphopeptides (DiFMUP), SHP2 T42A; assay type: biochemical; details: activation of full-length SHP2 T42A (0.05 nM) by phosphopeptide; DiFMUP substrate; HEPES pH 7.2 assay buffer; mean of N (column N)
T1 construct: Full-length SHP2 constructs were diluted in assay buffer; His6-TEV (N, cleaved yes); made in house; host or cells: E. coli BL21(DE3)
T1 sequence (Q06124 1-593 T42A): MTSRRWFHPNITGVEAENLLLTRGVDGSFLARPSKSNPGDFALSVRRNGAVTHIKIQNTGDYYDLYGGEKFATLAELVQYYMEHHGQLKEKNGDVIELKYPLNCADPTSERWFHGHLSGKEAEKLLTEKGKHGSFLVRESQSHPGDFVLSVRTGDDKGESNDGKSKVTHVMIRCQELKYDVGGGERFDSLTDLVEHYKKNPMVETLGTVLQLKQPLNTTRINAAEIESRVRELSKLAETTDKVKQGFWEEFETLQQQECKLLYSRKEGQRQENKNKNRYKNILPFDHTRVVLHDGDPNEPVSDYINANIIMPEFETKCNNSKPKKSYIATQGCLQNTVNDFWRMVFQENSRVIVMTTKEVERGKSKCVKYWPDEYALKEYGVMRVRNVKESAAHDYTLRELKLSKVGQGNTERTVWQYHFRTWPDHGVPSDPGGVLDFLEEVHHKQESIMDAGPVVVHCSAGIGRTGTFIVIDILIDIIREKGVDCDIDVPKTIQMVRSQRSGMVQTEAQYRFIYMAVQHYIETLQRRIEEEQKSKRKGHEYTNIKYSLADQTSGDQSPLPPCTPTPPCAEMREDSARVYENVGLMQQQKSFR

full-length SHP2^WT = target: T2, full-length SHP2^WT (Homo sapiens, UniProt Q06124); assay: SHP2 activation assay using phosphopeptides (DiFMUP), SHP2 WT; assay type: biochemical; details: activation of full-length SHP2 WT (0.05 nM) by phosphopeptide; DiFMUP substrate; 60 mM HEPES pH 7.2, 75 mM KCl, 75 mM NaCl, 1 mM EDTA, 0.05% Tween-20, 0.5 mM TCEP; fluorescence read every 25 s for 6 min; mean of N (column N)
T2 construct: Full-length SHP2 constructs were diluted in assay buffer; His6-TEV (N, cleaved yes); made in house; host or cells: E. coli BL21(DE3)
T2 sequence (Q06124 1-593): T1 sequence (Q06124 1-593 T42A) with A42T
Description: SHP2 activation assays using phosphopeptides
Full-length SHP2 constructs were diluted in assay buffer (60 mM HEPES pH 7.2, 75 mM KCl, 75 mM NaCl,1 mM EDTA, 0.05% Tween-20, with 0.5 mM TCEP freshly added) to a 2X concentration of 0.1 nM. Peptides were serially diluted in assay buffer, with the last point of the concentration series fully without peptide. 15 μL of peptide and 15 μL of 800 μM DiFMUP was added to a black 96-well half area plate. Right before starting the plate reader assay, 30 μL SHP2 was added to each well a Supplementary Information - page 4 of 18 […]
final concentration of 0.05nM. Kinetic measurements (Ex 358/Em […]) were taken on a BioTek Neo2 plate reader every 25 seconds for 6 minutes. […]
(§1) OD600 reached 0.5. 20 mL of cell suspension was induced at 25 °C using a final concentration of 0.4% arabinose until the OD600 ~ 1 (after approximately 4 hours). The cells were spun down at 4000 rpm for 15 minutes, and the pellet was resuspended in PBS so that the OD600 ~1.5. The cells were stored in the fridge and used within a week.
(§2) For each sample, 75 μL of Dynabeads™ FlowComp™ Flexi Kit were washed twice in 1 mL SH2 buffer (50 mM HEPES pH 7.5, 150 mM NaCl, 1 mM TCEP, and 0.2% BSA) on a magnetic rack.
(§3) The beads were then resuspended in 75 μL of SH2 buffer. SH2 domains were thawed quickly and 20 μM of protein was added to the beads. SH2 buffer was added up to 150 μL, and the suspension was incubated for 1 hour at 4 °C while rotating. After 1 hour, the suspension was placed on a magnetic rack and washed twice with 1 mL SH2 buffer.
(§4) Preparing the phosphorylated cells
(§5) 150 μL of prepared cells per sample were spun down for 4000 rpm for 5 minutes at 4 °C.
(§6) Kinase screen buffer was prepared (50 mM Tris, 10 mM magnesium chloride, 150 mM sodium chloride; add 2 mM sodium orthovanadate and 1 mM TCEP fresh) and the cells of each sample were resuspended in 100 μL kinase screen buffer. Kinases c-Src, c-Abl, AncSZ, Eph1B were added to a final concentration of 2.5 µM each, creatine phosphate was added to a final concentration of 5 mM, and phosphokinase was added to a final concentration of 50 µg/mL. The suspension was incubated at 37 °C for 5 minutes before ATP was added to a final concentration of 1 mM. This mixture was incubated at 37 °C for 3 hours. After 3 hours, EDTA was added to a final concentration of 25 mM to quench the reaction. The input library control sample was not phosphorylated. These cells were spun down at 4000 rpm for 15 minutes at 4 °C. The cells were then resuspended in 100 µL of SH2 buffer + 0.1% BSA. Phosphorylation of the cells was confirmed by labeling with the PY20-PerCP-eFluor 710 pan-phosphotyrosine antibody followed by analysis via flow cytometry.
(§7) Enriching for cells displaying high-affinity phosphopeptide ligands
(§8) 100 μL of phosphorylated cells were mixed with 75 µL SH2-beads for 1 hour at 4 °C while rotating. After 1 hour, samples were placed on a magnetic rack, supernatant was removed and 1 mL SH2 buffer was added to each sample. This was rotated for 30 minutes at 4 °C to wash the beads.
(§9) After this wash, the beads were placed on a magnetic rack, the supernatant was removed and 50 µL […]
(§10) Preparing sequencing samples & deep sequencing
All SH2-selected samples and the input library control were resuspended in 50 µL MilliQ water, vortexed, and boiled for 10 minutes at 100 °C. The boiled lysate was used as the DNA template in a PCR reaction using the TruSeq-eCPX-Fwd and TruSeq-eCPX-Rev primers. The mixture resulting from this PCR was used directly into a second PCR to append Illumina sequencing adaptors and Supplementary Information - page 5 of 18

SHP2 C-SH2^E139D domain = target: T3, SHP2 C-SH2^E139D domain (Homo sapiens, UniProt Q06124, E139D); assay: SH2 specificity profiling by bacterial peptide display (Human pTyr and pTyr-Var Libraries), C-SH2 E139D; assay type: binding; details: for >3.2 --> C-E139D-Ave: average enrichment score above cutoff of 3.2 (true binder); for C-E139D-Ave (enrichment score): bacterial peptide display, frequency in enriched sample / input, average, Human pTyr Library N = 3, pTyr-Var Library N = 2
T3 construct: SHP2 SH2 domains were cloned into a His6-SUMO-SH2-Avi construct; His6-SUMO (N, cleaved yes); made in house; host or cells: E. coli C43(DE3), co-expressed with BirA
T3 sequence (Q06124 112-216 E139D limits assumed): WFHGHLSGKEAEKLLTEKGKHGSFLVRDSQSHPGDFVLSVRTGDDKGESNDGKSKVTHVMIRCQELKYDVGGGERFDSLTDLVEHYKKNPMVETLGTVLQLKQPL
Description: (§11) Next, we characterized the sequence specificity of the SH2 mutants relative to their wild-type counterparts in a large-scale, unbiased screen. […] For each peptide in a library, an enrichment score is calculated from the deep sequencing data as the frequency of the peptide in the SH2-enriched sample divided by the frequency of the peptide in the unenriched input sample ([34]). For this study, we used two largely non-overlapping libraries, both encoding known human phosphosites. […] The Human pTyr Library consists of 1,916 sequences derived from known phosphorylation sites in the human proteome, along with another 617 control mutants ([35]). […]
(§12) SH2 specificity profiling using bacterial peptide display
(§13) Preparation of bacterial cells
as §1, with “Electrocompetent MC1061 cells were transformed with ~100 ng of the respective library. After 1 hour recovery in 1 mL LB, cells were further diluted into 250 mL LB + 0.1% chloramphenicol. 1.8 mL of overnight culture was used to inoculate 100 mL LB + 0.1% chloramphenicol, and grown until OD600 reached” for “OD600 reached”
as §2, §3, §4, §5, §6, §7, §8, §9, §10
(§14) All SH2-selected samples and the input library control were resuspended in 50 µL MilliQ water, vortexed, and boiled for 10 minutes at 100 °C. The boiled lysate was used as the DNA template in a PCR reaction using the TruSeq-eCPX-Fwd and TruSeq-eCPX-Rev primers. The mixture resulting from this PCR was used directly into a second PCR to append Illumina sequencing adaptors and Supplementary Information - page 5 of 18 […]
(§15) unique 5’ and 3’ indices to each sample (D700 and D500 series primers). The resulting PCR mixtures […]

SHP2 N-SH2^WT domain = target: T4, SHP2 N-SH2^WT domain (Homo sapiens, UniProt Q06124); assay: SH2 specificity profiling by bacterial peptide display (Human pTyr and pTyr-Var Libraries), N-SH2 WT; assay type: binding; details: for >3.2 --> N-WT-Ave: average enrichment score above cutoff of 3.2 (true binder); for N-WT-Ave (enrichment score): bacterial peptide display, enzymatically phosphorylated displayed peptides, SH2-coated beads, deep sequencing, frequency in enriched sample / input, average, Human pTyr Library N = 3, pTyr-Var Library N = 2
T4 construct: SHP2 SH2 domains were cloned into a His6-SUMO-SH2-Avi construct; His6-SUMO (N, cleaved yes); made in house; host or cells: E. coli C43(DE3), co-expressed with BirA
T4 sequence (Q06124 6-102 limits assumed): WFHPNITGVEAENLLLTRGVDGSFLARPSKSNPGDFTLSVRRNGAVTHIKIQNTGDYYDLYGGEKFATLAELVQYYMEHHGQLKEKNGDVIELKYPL
Description: as §11, §12, §13
as §1, with “Electrocompetent MC1061 cells were transformed with ~100 ng of the respective library. After 1 hour recovery in 1 mL LB, cells were further diluted into 250 mL LB + 0.1% chloramphenicol. 1.8 mL of overnight culture was used to inoculate 100 mL LB + 0.1% chloramphenicol, and grown until OD600 reached” for “OD600 reached”
as §2, §3, §4, §5, §6, §7, §8, §9, §10, §14, §15

SHP2 C-SH2^WT domain = target: T5, SHP2 C-SH2^WT domain (Homo sapiens, UniProt Q06124); assay: SH2 specificity profiling by bacterial peptide display (Human pTyr and pTyr-Var Libraries), C-SH2 WT; assay type: binding; details: for >3.2 --> C-WT-Ave: average enrichment score above cutoff of 3.2 (true binder); for C-WT-Ave (enrichment score): bacterial peptide display, frequency in enriched sample / input, average, Human pTyr Library N = 3, pTyr-Var Library N = 2
T5 construct: SHP2 SH2 domains were cloned into a His6-SUMO-SH2-Avi construct; His6-SUMO (N, cleaved yes); made in house; host or cells: E. coli C43(DE3), co-expressed with BirA
T5 sequence (Q06124 112-216 limits assumed): T3 sequence (Q06124 112-216 E139D limits assumed) with D28E
Description: as §11, §12, §13
as §1, with “Electrocompetent MC1061 cells were transformed with ~100 ng of the respective library. After 1 hour recovery in 1 mL LB, cells were further diluted into 250 mL LB + 0.1% chloramphenicol. 1.8 mL of overnight culture was used to inoculate 100 mL LB + 0.1% chloramphenicol, and grown until OD600 reached” for “OD600 reached”
as §2, §3, §4, §5, §6, §7, §8, §9, §10, §14, §15

Compound	EC50 (full-length SHP2^T42A)	EC50 (full-length SHP2^WT)	>3.2 --> C-E139D-Ave (SHP2 C-SH2^E139D domain)	C-E139D-Ave (enrichment score) (SHP2 C-SH2^E139D domain)	>3.2 --> N-WT-Ave (SHP2 N-SH2^WT domain)	N-WT-Ave (enrichment score) (SHP2 N-SH2^WT domain)	>3.2 --> C-WT-Ave (SHP2 C-SH2^WT domain)	C-WT-Ave (enrichment score) (SHP2 C-SH2^WT domain)
CC[C@H](C)[C@H](NC(=O)[C@@H](NC(=O)[C@H](C)NC(=O)[C@H](Cc1ccc(OP(=O)(O)O)cc1)NC(=O)[C@@H](NC(=O)[C@@H]1CCCN1C(=O)[C@H](CCC(=O)O)NC(=O)[C@@H]1CCCN1C(=O)[C@H](CO)NC(=O)[C@H](C)NC(C)=O)[C@@H](C)CC)[C@@H](C)O)C(=O)N[C@@H](CC(=O)O)C(=O)N[C@@H](Cc1ccccc1)C(=O)N[C@@H](CC(=O)O)C(N)=O	1460 nM	2820 nM	–	–	–	–	–	–
MKGDAHRYLAEFATG (bacterially displayed) [1433E_HUMAN_131_YA]	–	–	FALSE (>3.2 -->)	0.7738	FALSE (>3.2 -->)	0.7788	FALSE (>3.2 -->)	0.6613
SDRKGGSYTQAASSD (also: phosphorylated, site not given here) [1A01_HUMAN_344]	–	–	FALSE (>3.2 -->)	0.8092	FALSE (>3.2 -->)	0.7728	FALSE (>3.2 -->)	0.7595
CC(=O)NCC(=O)N[C@@H](CC(=O)O)C(=O)N[C@@H](CCCCN)C(=O)N[C@@H](CCC(N)=O)C(=O)N[C@H](C(=O)N[C@@H](CCC(=O)O)C(=O)N[C@@H](Cc1ccc(OP(=O)(O)O)cc1)C(=O)N[C@@H](CC(C)C)C(=O)N[C@@H](CC(=O)O)C(=O)N[C@@H](CC(C)C)C(=O)N[C@@H](CC(=O)O)C(=O)N[C@@H](CC(C)C)C(=O)N[C@@H](CC(=O)O)C(N)=O)C(C)C	–	26200 nM	–	–	–	–	–	–
MKGDYHRYLAEFATG (also: phosphorylated, site not given here) [1433E_HUMAN_131]	–	–	FALSE (>3.2 -->)	0.911	FALSE (>3.2 -->)	0.8269	FALSE (>3.2 -->)	0.8786
MKGDAARYLAEVATG (bacterially displayed) [1433G_HUMAN_133_YA]	–	–	–	–	FALSE (>3.2 -->)	0.9356	FALSE (>3.2 -->)	0.8982
